Assay results: patent publication US8889621B2, “Inhibiting binding of FGF23 to the binary FGFR-Klotho complex for the treatment of hypophosphatemia” (New York University, priority 2009, dated 2014)
Each block holds one molecule with its values, some of them ahead of it.

Molecular target: T1, binary FGFR1c-Klotho complex (UniProt O35082+P11362)
T1 construct: The ectodomain of murine Klotho (A35 to K982) was purified from culture media; FLAG (C); made in house; host or cells: E. coli (FGFR1c, FGF23); HEK293 (Klotho ectodomain)
T1 sequence (P11362 142-365): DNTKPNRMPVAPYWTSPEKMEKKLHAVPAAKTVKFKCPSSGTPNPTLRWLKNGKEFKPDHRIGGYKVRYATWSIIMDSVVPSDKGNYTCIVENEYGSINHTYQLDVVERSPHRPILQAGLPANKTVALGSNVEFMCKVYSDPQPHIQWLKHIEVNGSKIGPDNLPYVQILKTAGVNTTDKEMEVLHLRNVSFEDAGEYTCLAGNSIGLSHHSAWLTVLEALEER
T1 sequence (O35082 35-982): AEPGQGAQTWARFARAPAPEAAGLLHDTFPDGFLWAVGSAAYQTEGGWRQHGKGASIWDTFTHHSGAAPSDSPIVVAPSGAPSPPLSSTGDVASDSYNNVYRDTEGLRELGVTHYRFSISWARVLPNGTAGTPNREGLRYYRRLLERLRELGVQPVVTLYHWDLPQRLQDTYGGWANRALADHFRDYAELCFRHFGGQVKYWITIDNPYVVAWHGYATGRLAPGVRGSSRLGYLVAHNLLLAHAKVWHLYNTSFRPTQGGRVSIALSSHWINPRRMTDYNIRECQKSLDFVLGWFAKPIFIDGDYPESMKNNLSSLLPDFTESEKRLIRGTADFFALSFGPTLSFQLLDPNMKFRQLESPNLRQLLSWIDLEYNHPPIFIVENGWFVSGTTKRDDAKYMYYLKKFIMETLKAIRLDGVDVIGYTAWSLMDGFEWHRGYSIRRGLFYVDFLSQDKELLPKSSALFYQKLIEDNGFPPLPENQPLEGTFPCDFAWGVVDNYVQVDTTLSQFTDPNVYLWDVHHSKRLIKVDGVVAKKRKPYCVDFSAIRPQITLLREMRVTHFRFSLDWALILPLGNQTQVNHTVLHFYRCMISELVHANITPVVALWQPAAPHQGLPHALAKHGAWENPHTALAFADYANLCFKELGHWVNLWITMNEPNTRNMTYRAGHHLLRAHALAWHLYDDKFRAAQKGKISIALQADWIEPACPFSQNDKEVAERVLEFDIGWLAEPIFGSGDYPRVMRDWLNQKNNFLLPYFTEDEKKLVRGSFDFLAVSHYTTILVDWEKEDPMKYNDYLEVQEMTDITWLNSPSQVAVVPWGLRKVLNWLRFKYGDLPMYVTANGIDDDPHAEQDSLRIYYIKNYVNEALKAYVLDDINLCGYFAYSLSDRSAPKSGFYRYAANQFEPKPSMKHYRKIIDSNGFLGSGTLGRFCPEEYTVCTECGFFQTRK
Assay: SPR: binary FGFR1c-Klotho complex passed over immobilized FGF23 protein/peptide
Type: binding, human FGFR1c, murine Klotho
Procedure: A variety of interaction or binding assays can be used to determine that an agent specifically binds the binary FGFR-Klotho complex, such as the SPR interaction analysis described below. One aspect of the present invention utilizes SPR analysis of FGF23 protein/peptide binding to the binary FGFR-Klotho complex. The SPR analysis involved FGF23 protein/peptide immobilization by amine coupling on flow channels of a chip. Proteins were injected over the chip at a flow rate of 50 μl min^−1, and at the end of each protein injection (180 s), HBS-EP buffer (10 mM HEPES-NaOH, pH 7.4, 150 mM NaCl, 3 mM EDTA, 0.005% (v/v) polysorbate 20; 50 μl min^−1) was flowed over the chip to monitor dissociation for 180 s. The chip surface was then regenerated by injecting 50 μl of 2.0 M NaCl in 10 mM sodium acetate, pH 4.5. […] For each protein injection over a FGF23 protein/peptide chip, the nonspecific responses from the FHF1B control flow channel were subtracted from the responses recorded for the flow channel onto which FGF23 protein/peptide was immobilized. […] As a control, competition of FGF23 C-terminal tail peptide in solution with immobilized FGF23 C-terminal tail peptide for binding to the binary FGFR1c-Klotho complex was analyzed. […]

- binding to the binary FGFR1c-Klotho complex: bound to the FGFR1c-Klotho complex
B1: FGF23^28-251: human FGF23 (A28 to I251), bioactive full-length ligand expressed in E. coli (protein, listed as Homo sapiens)
chain: ASPLLGSSWGGLIHLYTATARNSYHLQIHKNGHVDGAPHQTIYSALMIRSEDAGFVVITGVMSRRYLCMDFRGNIFGSHYFDPENCRFQHQTLENGYDVYHSPQYHFLVSLGRAKRAFLPGMNPPPYSQFLSRRNEIPLIHFNTPIPRRHTRSAEDDSERDPLNVLKPRARMTPAPASCSQELPSAEDNSPMASDPLGVVRGGRVNTHAGGTGPEGCRPFAKFI

- binding to the binary FGFR1c-Klotho complex: avidly bound
B2: FGF23^180-251: 72-amino acid C-terminal tail of human FGF23 (S180 to I251), expressed in E. coli (protein, listed as Homo sapiens)
chain: SAEDDSERDPLNVLKPRARMTPAPASCSQELPSAEDNSPMASDPLGVVRGGRVNTHAGGTGPEGCRPFAKFI
